# Laboratory results: article doi:10.1101/590646
# Molecular target: SERINC5-VN-HA (human) (UniProt Q86VE9)
# Test: split reporter
# Chain of UniProt Q86VE9 (Q86VE9 whole entry): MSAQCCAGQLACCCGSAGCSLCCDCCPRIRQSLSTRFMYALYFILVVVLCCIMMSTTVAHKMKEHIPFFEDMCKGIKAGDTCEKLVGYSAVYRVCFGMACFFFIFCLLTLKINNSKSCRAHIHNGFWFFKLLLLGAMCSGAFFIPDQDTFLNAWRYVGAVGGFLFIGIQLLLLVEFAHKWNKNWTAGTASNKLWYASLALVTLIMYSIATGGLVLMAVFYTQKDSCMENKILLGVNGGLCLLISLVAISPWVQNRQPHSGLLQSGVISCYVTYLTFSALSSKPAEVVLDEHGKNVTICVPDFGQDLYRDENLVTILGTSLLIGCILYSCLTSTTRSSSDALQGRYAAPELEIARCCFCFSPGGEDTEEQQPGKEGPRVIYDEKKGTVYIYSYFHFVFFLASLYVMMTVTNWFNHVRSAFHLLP
substance,measurement,value
Nef_(NL43)-V5-VC (HIV-1 NL4-3 Nef fused to a Venus fragment) (natural protein),fold increase in BiFC fluorescence over the singly expressed constructs,4 fold
